Measurements taken from patent US5789539, “Chemokine-like proteins and methods of use” (Repligen Corporation, dated 1998).
Substitutions are numbered along the chain they refer to.

Legend:
[1] = target: T1, human neutrophil IL-8 receptor subtype B (huIL8Rb) (human, UniProt P25025); experiment: competition with 0.5 nM 125I-labeled IL-8 on CHO cells expressing huIL8Rb; "NC" indicates no competition
Protocol: (§1) receptor subtype B (huIL8Rb), was used in binding assays to test mutant chemokine binding. Approximately 5×10^3 cells were plated in the wells of a 96 well plate and grown for 2 to 3 days. The medium was replaced with phosphate-buffered saline (PBS) supplemented with 0.5% BSA (PBS/BSA), 0.5 nM ^125I-labeled IL-8, and increasing concentrations of the various unlabeled chemokines. The plates were incubated on ice for 90 minutes, the binding mixture was removed, and the cells were washed three times with ice-cold PBS/BSA. The cells were removed from the plates with trypsin-EDTA (Gibco), and the radioactivity of the entire contents of the well determined by gamma counting. Binding of each chemokine to untransfected cells, or binding in the presence of 2 μM unlabeled IL-8, was determined and the value obtained used as the background value. Binding data was plotted as percent of mean specific binding (total binding minus background/specific binding with no competitor). […] "NC" indicates no competition.

[2] = target: T1, human neutrophil IL-8 receptor subtype …; experiment: competition with 0.5 nM 125I-labeled IL-8 on CHO cells expressing huIL8Rb
Protocol: as §1

B1: wild-type platelet factor 4 (PF4) (ligand)
chain: EAEEDGDLQCLCVKTTSQVRPRHITSLEVIKAGPHCPTAQLIATLKNGRKICLDLQAPLYKKIIKKLLES
**Q.** Does B1 bind [1]?
**A.** no binding

B2: PF4M1 (ligand)
chain: B1 chain with Q9R
**Q.** Which Ki [2] does the source give for B2 here?
**A.** 839 nM

B3: PF4M2 (ligand)
chain: MSAKELRCQCVKTTSQVRPRHITSLEVIKAGPHCPTAQLIATLKNGRKICLDLQAPLYKKIIKKLLES
**Q.** B3 was tested. Which Ki [2] did it give?
**A.** 52 nM
